Laboratory results as given in the nanobody polyreactivity screen of Harvey et al. (2022).

Assay: yeast display, Sf9 membrane polyspecificity reagent, FACS + sequencing; frameworks hold sequencing errors
Procedure, shortened: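 Genes from sorted yeast were amplified by colony PCR, read by MiSeq 2 × 250 sequencing and filtered on CDR length. These cells carried a synthetic nanobody library in Saccharomyces cerevisiae BJ5465 and were sorted by FACS into low and high (top ~1%) gates on anti-HA and streptavidin fluorescence. Polyreactivity is labelled according to the gate of origin.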
In the case of “QVQLVESGGGLVQAGGSLRLSCAASGSTFSYYAMGWYRQAPGKERDLVAAISTDGGSTYYADSVKGRFTISRDNAKNTVYLQMNSLKPEDTAVYYCAALVGYYQYVWDLTYTVVEYNYWGQGTQVNVSS”, the “polyreactivity (PSR sort gate)” value is reported as “low polyreactivity”. With “QVQLVESGGGLVQAGGSLRLSCAASGSIFGVYAMGWYRQAPGKERELVAAISWSGTSTYYADSVKGRFTISRDNAKNTVYLQMNSLKPEDTAVYYCNADWVLDGYDYDYWGQGTQVTVSS” the “polyreactivity (PSR sort gate)” value was “low polyreactivity”. In the case of “QVQLVESGGRLVQAGGSLRLSCAASGFTFARYTMGWYRQAPGKERELVAAISSRGSSTYYADSVKWRFTISRDNAKNTVYLQMNSLKPEDTAVYYCGAPPRYGYDYWGQGTQVTVSS”, the “polyreactivity (PSR sort gate)” value is reported as “high polyreactivity”. For “QVQLVESGGGLVQAGGSLRLSCAASGRIFYAYVMGWYRQAPGKERELVADITSSGSTNYADSVKGRFTISRDNAKNTVYLQMNSLKPEDTAVYYCAKVPYAYQVRRKFGYWGQGTQVTVSS”, the “polyreactivity (PSR sort gate)” value was “low polyreactivity”. For “QVQLVESGGGLVQAGGSLRLSCAASGSTFYTYAMGWYRQAPGKERELVATISRGGGRTYYADSVKGRFTISRDNAKNTVYLQMNSLKPEDTAVYYCAARLYSSSYNSEQYYYWGQGTQVTVSS”, the “polyreactivity (PSR sort gate)” value was “high polyreactivity”. For “QVQLVESGGGLVQAGGSLRLSCAASGFTFRTYAKGWYRQAPAKERELVADISGSGGSTYYADSVKGRFTISRDNAKNTVYLQMNSLKPEDTAVYYCAADYASWSNWGYEYWGQGTQVTVSS”, the “polyreactivity (PSR sort gate)” value was “high polyreactivity”. For “QVQLVESGGGLVQAGGSLRLSCAASGLTFIKYTMGWSRQAPGKERELVATIRASTGSTYYADSVKGRFTISRDNAKNTVYLQMNSLKPEDTAVYYCATRSYPPYYGLYGGRAYNYWGQGTQVTVSS”, the “polyreactivity (PSR sort gate)” value was “high polyreactivity”. In the case of “QVQHVESGGGLGQAGGSLRLSCAASGLTFSVYAMGWSRQAPGKERELYAAISYSGVSTYADSEKGRFTISRDNAKNTVYLQMNSLKPEDTAVYYCNARWVREGYRRWYDYWGQGTQVTVSS”, the “polyreactivity (PSR sort gate)” value is reported as “low polyreactivity”. With “QVQLVDSGGGLVQAGGSLSLSCAASGRIFTHYSMGWYRQATGKERELVAGMSQGGGSTYYADSVKGRFTISRDNAKNTVYLQMNSLKPEDTAVYYCAKTYDYVDYDYWGQGTQVTVSS” the “polyreactivity (PSR sort gate)” value was “low polyreactivity”. With “QVQLVESGGGLVQAGGSLRLSCAASGRTFTNYAMGWYRQAPGKERELVAAISKRGGTTYYADSVKGRFTISRDNAKNTVYLQMNSLKPEDTAVYYCNKAKTAYRGQYDYWGQGTQVTVSS” the “polyreactivity (PSR sort gate)” value was “high polyreactivity”. In the case of “QVQLVESGGGLVQAGGSLRLSCAASGIIFNYYTMGWYRQAPGKERELVAVISWRGGSTFYADSVKGRFTISRDNAKNTVYLQMNSLKPEDTAVYYCAAVLFGDYPPVYYPTEYDYWGQGTQVTVSS”, the “polyreactivity (PSR sort gate)” value is reported as “low polyreactivity”. In the case of “QVQLVESGGGLVQAGGSLRLSCAASGSTFFSYVMGWYRQAPGKERELVAAISNGGSTYYADSVKGRFTISRDNAKNSVYLQMNSLKPEDTAVYYCAAGGRRKRGNYWGQGTQVTVSS”, the “polyreactivity (PSR sort gate)” value is reported as “high polyreactivity”. For “QVQLVESGGGLVQAGGSLRLSCAASGSTFYENTMGWYRQATGKERELVAAISFRGGSTYYADSVKGRFTISRDNAKNTVYLQMNSLKPEDTAVYYCNADDSPVPSIRFDYWGQGTQVTVSS”, the “polyreactivity (PSR sort gate)” value was “low polyreactivity”. In the case of “QVQLVESGGGLVQAGGRLPISCAASGLTFTSNAMGGYIQAPGKERELVASITWYGGSTSYADSVKGRFTISRDYAKNTVDFQMNSLKPEDTAVSYCAADAWRSYGYRAYYYWGQGTQVTVSS”, the “polyreactivity (PSR sort gate)” value is reported as “high polyreactivity”. For “QVQHVESGGGLVQAGGSLRLSCAASGSTFAYNDMGRYRQAPGKERELVADIRSGGNTNYADSVKGRFTISRDNAKNTVYLQMNSLKPEDTAVYYCATDGYRIDVYHPDYRYDYWGQGTQVTVSS”, the “polyreactivity (PSR sort gate)” value was “low polyreactivity”. In the case of “QVQLVESGGGLVKAGGSLRLSCAASGLISAVYALGWYRQAPGKERELVAAITTSGGRTYYADSVKGRFTISRDNAKNTVYLQMNSLKPEDTAVYYCAAEHVRYLNPEFDYWGQGTQVTVSS”, the “polyreactivity (PSR sort gate)” value is reported as “high polyreactivity”. With “QVQLVESGGGLVQAGGSLRLSCAASGRIFTHNAMGWYIQAPGKERELVAAITSGGRTTYADSVKGRFTISRENAKNTVYLQMISLKPVDTAVYYCAADDLLDYDYWGQGTQVTVSS” the “polyreactivity (PSR sort gate)” value was “low polyreactivity”. For “QVQLVESGGGLVQAGGSLRLSCAASGLTFYRYAMGWYRQAPGKERELVATIRSGDGTYYADSVKGRFTISRDNAMNTVYFKMNSLKPEDTAVYYCAAKKVYRVYGRYEYWGQGTQVTVSS”, the “polyreactivity (PSR sort gate)” value was “high polyreactivity”. For “QVQLVESGGGLVQAGGSLRLSCAASGTIFLVYAMGWYRQAPGKERELVAAITFSGGDTYADSVKGRFTISRDNAKNTVYLQMNSLKPEDTAVYYCNAPWPFYGSVVGQDFDYWGQGTQVTVSS”, the “polyreactivity (PSR sort gate)” value was “low polyreactivity”. With “QVQLVESGGGLVQAGGSLRLSCAASGSTFYRNTMGWYRQAPGKERELVAAISRTGASTHYADSVKGRFTISRDNAKNTVYLQMNSLKPEDTAVYYCNAVPAIGKYYGGGYWGQGTQVTVSS” the “polyreactivity (PSR sort gate)” value was “high polyreactivity”. In the case of “QVQHVESGGGLVQAGGSLRLSCAVSGRTFYYYAMGWYRQAPGKERELVAAISSSGGSTYYADSVKGRFTISRDNAKNTVYLQMNSLKPEDTAVYYCAAAARKVSVSRYLYYYWGQGTQVTVSS”, the “polyreactivity (PSR sort gate)” value is reported as “high polyreactivity”. In the case of “QVHLVESGGGLVQAGGSLRLSCAASGIIFGVYAMGWYRQATGKESELVAAIDGNGSSTYYADSVKGRFTISRDNAKNTVFLQMNSLKPEDTAVYYCAAGYWSYLYYWYDFDYWGQGTQVTVSS”, the “polyreactivity (PSR sort gate)” value is reported as “low polyreactivity”. With “QVQLVESGGGLVQAGGSLRLICAASGRIFYGYAMGWSRQAPGKERELVAAIRWSGGRTYYADSVKGRFTISRDNAKNTVYLQMNSLKPEATAVYYCAADYGYRSYVRFLSANYDYWGKGTQVTVSS” the “polyreactivity (PSR sort gate)” value was “high polyreactivity”. For “QVQLVESGGGLVQAGGSLRLSCAASGRTFNLYAMVWSRQAPGKERELVAAISLSGGRTYYADSVKGRITISRDNAKNTVFLQMNRLNPEDTAVYYCNTDTSRRAVQYDYWGQGTQVSVSS”, the “polyreactivity (PSR sort gate)” value was “high polyreactivity”. With “QVQLVESGGGLVQAGGSLRLSCAASGFTFVSYAMGWSRQAPGKERELVAVISKSGSRTSYAESVKGRFTISRDNAKNTVYLQMNSLKPEDTAVYYCAVYYTRIGPRYDYWGQGTQVTVSS” the “polyreactivity (PSR sort gate)” value was “high polyreactivity”. For “QVQLVESGGGLVQAGGSLRLSCAASGSIFADYTMGWYRQAPGKERELVAPINYRDGGTSYADSVKGRFTISRDKANNTVYLQMNSLKPEDTAVYYCTKQVDLSGQWDYWYGYYTYDYWGPGTQVTVSS”, the “polyreactivity (PSR sort gate)” value was “low polyreactivity”. With “QVQLVESGGGLVQAGGSLRLSCAASGSIFYAYYMGWYRQAPGKESELVAAINWSGDSTYYADSVKGRFTISRDNAKNTVYLQMNSLKPEDTAVYYCAAVSGSGDSGEYDYWGQGTQVTVSS” the “polyreactivity (PSR sort gate)” value was “low polyreactivity”. For “QVQLVESGGGLVPAGGSLRLSCAASGSTFSDYAMGWYRQAPGKERELVASIDSGDSTNYADSVKGRFTISRDNAKNTVYLQMTSLKPEDTAVYFCAADYQNTGARYGYYYWGQGTQVTVSS”, the “polyreactivity (PSR sort gate)” value was “low polyreactivity”. In the case of “QVQLVESGGGLVKAGGSLRISCAASGRIFGYNAMGWYRQAPGKERELVAVISTSGTITYYADSVKGRFTISRDNAKNTVYLQMNSLKPEDTAVYYCAARYYQRANGFGYWGQGTQVTVSS”, the “polyreactivity (PSR sort gate)” value is reported as “low polyreactivity”. With “QVQIVESGGGLVQAGGSLRLSCASSGSTFVPNDMGSYRQAPWKERELVAAISRSGDDTYYADSVKGRFTISRDNAKNTVYFQMNSLIPEDTAVYYCNAAGRPFFLRPLRWELDYWGQGTQVTVSS” the “polyreactivity (PSR sort gate)” value was “low polyreactivity”. For “QVQLVESGGGLVQAGGSLRLSCAASGRTFKWYAMGWYRQAPGKERELVAAISSSGSTYYADSVKGRFTISRDNAKNTVYLQMNSLKPEDTAVYYCAVLRRYLVGNLVGYNYWGQGTQVTVSS”, the “polyreactivity (PSR sort gate)” value was “high polyreactivity”. In the case of “QVQLVESGGGLVQAGGSLRLSCAASGSIFGAYAMGWYRQAPGKERELVAAISSSVDRTYYADSVKGRFTISRDNAKNTVYLQMNSLKPEDTAVYYCAARWGTRDRTKYYYWGQGTQVTVSS”, the “polyreactivity (PSR sort gate)” value is reported as “high polyreactivity”. In the case of “QVQLVESGGGLVQAGGSLRLSCAASGSTIVTKAMGWYRQAPGKERELVAAISFSVGRTYYADSVKGRFTISRDNAKNTVYLQMNSLKPEDTAVYYCAAGLRVTPALHSYGYWGQGTQVTVSS”, the “polyreactivity (PSR sort gate)” value is reported as “high polyreactivity”. For “QVQLVESGGGLVQAGGSLRLSCAASGITLDRNYMGWYRQAPGKERELVAAISRSGVRTYYADSVKGRFTISRDNAKNTVYLQMNSLKPEDTAVYYCNKGYARRYASGYDYWGQGTQVTVSS”, the “polyreactivity (PSR sort gate)” value was “high polyreactivity”. With “QVQLVESGGGLVQAGGILRLSCAASGSTFIYNAMGLYRQAPGKEREFVASISASGGSTRYADSVKGRFTISRDNAKNTVYLQMNSLKQEDTAVYYCAKLLYLGRWRFPAGYNHWGQGTQVTVSS” the “polyreactivity (PSR sort gate)” value was “high polyreactivity”. For “QVQLVESGGGLVQAGGSLRLSCAASGSTFHDNAMGWYIQAPGKERELVAAISSGGRTNYADSVKGRFTISRDNAKNTVYLQMNSLKPEDTAVYYCAASFRRWYFYDRHEYGYWGQGTQVTVSS”, the “polyreactivity (PSR sort gate)” value was “low polyreactivity”. In the case of “QDQLVESGGGLVHAGCSLRLSCAASGRTFYGNAMGWYRQAPGKERELVAGITRGGSTYYADSVKGRFTISRDNAKNNVYLQMNSLKPEDTAVYYCAATRYYSWGSRGGYWGQGTQVSVSS”, the “polyreactivity (PSR sort gate)” value is reported as “high polyreactivity”. In the case of “QVQLVESGGGLVQAGGSLRLSCAASGSTLPAYTMAWYRQAPGKERELVAAISYRGGSTYYADSVKGRFTISRDNAKNTVYLQMNSLKPEDTAVYYCAAVYSVAYASTHYRIYDYWGQGTQVTVSS”, the “polyreactivity (PSR sort gate)” value is reported as “high polyreactivity”. In the case of “QVQLVESGGGLVQAGGSLRLSCAASGGTVKYYAMGWSRQSPGKERELVAAITWSGGSTYYADSVKGRFTISRDNAKNTVYLQMNSLKPEDTAVYYCNAAYSQISFNYWGQGTQVTVSS”, the “polyreactivity (PSR sort gate)” value is reported as “high polyreactivity”. In the case of “QVQLVESGGGLVQAGGSLRLSCAASGLIFPVYAMGWYRQAPGKEREFVASIWRGGTTYYADSVKGRFTISRDNAKNTVYLQMNSLKPEDTAVYYCAARYYPRGLVFPFTKYDYWGQGTQVTVSS”, the “polyreactivity (PSR sort gate)” value is reported as “high polyreactivity”. In the case of “QFKLVESGGGLVQAGGSLRLSCAASGVIIQGNAMGWYRQAPGNEMELVAAISSSVSTYYADSVKGRFTISRDNAKNTVYLQMTSLKPEDTAVYYCNAGFPLSLWLGDYWGHGTQVTVSS”, the “polyreactivity (PSR sort gate)” value is reported as “low polyreactivity”. With “QVQLVESGGGLVQAGGSLRLSCAASGSTIADKAMGWYRQAPGKERELVAAITRSGVRTYYADSVKGRFTISRDNAKNTVYLQMNSLKPEDTAVYYCAKRTYPSRIYDYWGQGTQVTVSS” the “polyreactivity (PSR sort gate)” value was “low polyreactivity”. In the case of “QVQHVESGGRLVQAGGSLRLICAASGRTFAPYAMGWYRQAPGKVRELVARITWSGTDTYYADSVKGRFTISRDNAKNTVYLQMNSLKPEDTAVYYCAADARYSRRYYYWGEGTQVTVSS”, the “polyreactivity (PSR sort gate)” value is reported as “low polyreactivity”.
